Data: patent publication US20230295310A1 (ABCELLERA BIOLOGICS, published 2023)

Legend:
human CD3e/d = target: T1, human CD3e/d (human, UniProt P07766 23-126; P04234 22-105); assay: SPR (Carterra LSA), mAb on chip
T1 construct: Bought soluble protein; also called hCD3e/d; human CD3/ed (Sino CT038-H2508H)
Summary of the method: (§1)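 Purified mAbs amine-coupled (EDC/S-NHS) at 10 μg/mL in 10 mM NaOAc pH 4.25 onto an HC-30M chip, with benchmark and negative-control mAbs; analyte flowed over the array. Double-referenced sensorgrams fitted globally to a 1:1 Langmuir model for ka, kd and KD.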

human CD3e/g = target: T2, human CD3e/g (human, UniProt P07766 23-126; P09693 23-116); assay: SPR (Carterra LSA), mAb on chip
T2 construct: Bought soluble protein; also called hCD3e/g; human CD3e/g (Acro CDD-C52W4)
Summary of the method: as §1

T1 sequence (P07766 23-126, chain 1 of 2): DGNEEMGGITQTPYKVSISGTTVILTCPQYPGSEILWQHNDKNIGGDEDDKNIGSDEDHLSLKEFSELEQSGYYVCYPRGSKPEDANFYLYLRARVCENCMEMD
T1 sequence (P04234 22-105, chain 2 of 2): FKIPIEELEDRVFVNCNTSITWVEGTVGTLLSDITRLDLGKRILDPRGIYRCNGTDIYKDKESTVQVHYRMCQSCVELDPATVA
T2 sequence (P07766 23-126, chain 1 of 2): as the sequence (P07766 23-126, chain 1 of 2) above
T2 sequence (P09693 23-116, chain 2 of 2): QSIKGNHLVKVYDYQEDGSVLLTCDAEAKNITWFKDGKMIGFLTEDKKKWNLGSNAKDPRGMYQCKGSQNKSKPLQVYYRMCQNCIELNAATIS

Row | Kd (human CD3e/d) [nM] | Kd (human CD3e/g) [nM] | Binder
1 | 11 | 22 | mAb 212 (antibody, V domains shown, VH and VL only) VH: EVQLLESGGGLVQPGGSLRLSCAASGFTFSNYAMNWVRQAPGKGLEWVSAISGSRSNTYYADSVKGRFTISRDNSKNTLYLQMNSLRAEDTGVYYCAKGAYSKYPYYYYMDVWGKGTTVTVSS VL: EIVMTQSPATLSLSPGERATLSCRASQSVSSSYLSWYQQKPGQAPRLLIYGASTRAIGIPARFSGSGSGTDFTLTISSLQAEDFAVYYCQQDDNLPWTFGQGTKVEIK
2 | 13 | 25 | mAb 214 (antibody, V domains shown, VH and VL only) VH: EVQLLESGGGLVQPGGSLRLSCAASGFTFSNYAMNWVRQAPGKGLEWVSAISGSRSNTYYADSVKGRFTISRDNSKNTLYLQMNSLRAEDTAVYYCAKGAYSKYPYYYYMDVWGKGTTVTVSS VL: EIVMTQSPATLSLSPGERATLSCRASQSVSSSYLSWYQQKPGQAPRLLIYGASTRAIGIPARFSGSGSGTDFTLTISSLQAEDFAVYYCQQDDNLPWTFGQGTKVEIK
3 | 128 | 101 | mAb 65 (antibody, V domains shown, VH and VL only) VH: QVQLVESGGGVVQPGRSLRLSCAASGFTFSGYGMHWVRQAPGKGLDWVAIIYYNGNNKYYADSVKGRFTISRDNSKNTLYLQMNSLRAEDTAVYYCARGGGYNWFDPWGQGTLVIVSS VL: not shown
4 | 22 | 47 | mAb 229 (antibody, V domains shown, VH and VL only) VH: QEQLVESGGGVVQPGRSLRLSCAASGFTFSSYGMHWVRQAPGKGLEWVAIIYYNGKKKDYADSVKGRFTISRDNSKNTLYLQMNSLRAEDTAVYYCARGLGYNWFDPWGQGTLVTVSS VL: EIVLTQSPDFQSVTPKEKVTITCRASQSIGSSLHWYQQKPDQSPKLLIKYASQSFSGVPSRFSGSGSGTDFTLTINSLEAEDAATYYCHQSSSLPYTFGQGTKLEIK
5 | 86.5 | 53.4 | mAb 83 (antibody, V domains shown, VH and VL only) VH: QVQLVESGGGVVQPGRSLRLSCAASGFTFSGYGMHWVRQAPGKGLDWVAIIYYNGNNKYYADSVKGRFTISRDNSKNTLYLQMNSLRAEDTAVYYCARGGGYNWFDPWGQGTLVIVSS VL: DIQMTQSPSSLSASVGDRVTITCRPSQIIINYLNWYQQKPGKAPKLLIYAASSLQSGVPSRFSGSGSGTDFTLTISSLQPEDFATYYCQQSYSTPFTFGRGTRLEIK
6 | 82.1 | 91.9 | mAb 86 (antibody, V domains shown, VH and VL only) VH: QVQLAESGGGVVQPGRSLRLSCEASGFTFSGYGMHWVRQAPGKGLDWVAIIYYDGKNKYYADSVKGRFTISRDNSKNTLYLQMNSLRAEDTAVYYCARGGGYNWFDPWGQGTLVTVSS VL: DIQMTQSPSSLSASVGDRVTITCRPSQTISKYLNWYQQKPGKAPKLLIYAASSLQSGVPSRFSGSGSGTDFTLTISSLQPEDFATYYCQQSYITPITFGRGTRLEIK
7 | 101 | 69.6 | mAb 81 (antibody, V domains shown, VH and VL only) VH: QVQLAESGGGVVQPGRSLRLSCAASGFTFSGYGMHWVRQAPGKGLDWVAIIYYDGKNKYYADSVKGRFTISRDNSKNTLYLQMNSLRAEDTAVYYCARGGGYNWFDPWGQGTLVTVSS VL: DIQMTQSPSSLSASVGDRVTITCRPSQTISNYLNWYQQDPGKAPKLLIYAASSLQSGVPSRFSGSGSGTDFTLTISSLQPEDFATYYCQQSYSTPITFGRGTRLEIK
8 | 46.7 | 99.9 | mAb 68 (antibody, V domains shown, VH and VL only) VH: EVQLVDSGGGLVQPGGSLRLSCSGSGFTFSSYWMSWVRQAPGKGLEWVANIKQDGSQKYYVDSVKGRFTISRDNVKNSLYLQMNSLRVEDTAVYYCARDESSSWYWYFDLWGRGTLVTVSS VL: DIQMTQSPSTLSASVGDRVTLTCRASQNIVKWLAWYQQKPGKAPKLLIYKASSLESGVPSWFSGSGSGTEFTLTINSLQPDDFATYYCQQYYTYSRTFGQGTKVEIK
9 | 117 | 102 | mAb 85 (antibody, V domains shown, VH and VL only) VH: QVQLVQSGAEVKKPGASVKVSCKASGYTVTGYYMHWVRQAPGQGLEWMGWINPNSGGTNFAQNFQGRVTMTRDTSISTFYMDLNRLRSDDTAVYYCARGGAPVSYWFFDLWGRGTLVTVSS VL: DIQMTQSPSSLSASVGDRVTITCRASQSISRYLNWYQQKPGKAPKVLIYNTSSLKSGVPSRFSGSGSGTDFTLTISSLQPEDFGTFYCQQSHSTPFTFGPGTKVDIK
10 | 124 | 74.8 | mAb 79 (antibody, V domains shown, VH and VL only) VH: QVQLVQSGAEVKKPGASVKVSCKASGYIVTGYYMHWVRQAPGHGLEWMGWINPNSGGTNFAQNFQGRVTMTRDTSISTFYMDLNRLTSDDTAVYYCARGGAPVSYWFFDLWGRGTLVTVSS VL: DIQMTQSPSSLSASVGDRVTITCRASQNINSYLNWYHQKPGKAPKVLIYNTSTLKSGVPSRFSGSGSGTYFTLTISSLQPEDFATFYCQQSHSTPFTFGPGTKVDIK
11 | 149 | 125 | mAb 66 (antibody, V domains shown, VH and VL only) VH: QVQLVQSGAEVKKPGASVKVSCKASGYTVTGYYMHWVRQAPGQGLEWMGWINPNSGGTNFAQNFQGRVTMTRDTSISTFYMDLSRLRSDDTAVYYCARGGAPVSYWFFDLWGRGTLVTVSS VL: DIQMTQSPSSLSASVGDRVTITCRASQSISRYLNWYQQKPGKAPKVLIYNTSSLKSGVPSRFSGSGSGTDFTLTISSLQPEDFATLYCQQSHSTPFTFGPGTKVDIK
12 | 25 | 5.6 | mAb 237 (antibody, V domains shown, VH and VL only) VH: EVQLLESGGDLVQPGGSLRLTCAASGFTFRSYAMNWVRQAPGKGLEWVSTISSRGDTTNYADSVKGRFTISRDTSKNTLYLQMDNLRADDTAVYYCSKMFSYYYYYMDVWGKGTTVTVSS VL: SYELTQPLSVSVALGQTARITCGGNNIGSKDVHWYQQKPGQAPVLVIYRDSNRPSGIPERFSGSNSGNTATLTISRAQAGDEADYYCQVWDSRTAVFGGGTQLTAL
13 | 59 | 17 | mAb 238 (antibody, V domains shown, VH and VL only) VH: EVQLLESGGDLVQPGGSLRLTCAASGFTFRSYAMNWVRQAPGKGLEWVSTISSRGDTTNYADSVKGRFTISRDTSKNTLYLQMDNLRADDTAVYYCSKMFSYYYYYMDVWGKGTTVTVSS VL: SYELTQPLSVSVALGQTARITCGGNNIGSKDVHWYQQKPGQAPVLVIYRDSNRPSGIPERFSGSNSGNTATLTISRAQAGDEADYYCQVWDSSTAVFGGGTQLTAL
14 | 19 | 12 | mAb 194 (antibody, V domains shown, VH and VL only) VH: QEQLVESGGGVVQPGGSLRLSCAASGFIFSGYGMHWVRQAPGKGLEWVAIIWYNGRKTYYAESVKGRFTISRDNSKNTLSLQMNSLRVEDTAVYYCTAGQGYNWFDPWGQGTLVTVSS VL: EIVMTQSPATLSVSPGERATLSCRASQSVSSNLAWYQQKPGQAPRLLIYGASTRATGIPARFSGSGSGTEFTLTISSLQSEDFAVYYCQQFNAWPLTFGGGTKMEIK
15 | 11 | 6.2 | mAb 225 (antibody, V domains shown, VH and VL only) VH: QEQLVESGGGVVQPGGSLRLSCAASGFKFSGYGMHWVRQAPGKGLEWVAIIWYNGRKTYYAESVKGRFTISRDNSKNTLSLQMNRLRVEDTAVYYCTAGQGYNWFDPWGQGTLVTVSS VL: EIVMTQSPATLSVSPGERATLSCRASQSVSSNLAWYQQKPGQAPRLLIYGASTRATGIPARFSGSGSGTEFTLTISSLQSEDFAVYYCQQFNAWPLTFGGGTKMEIK
16 | 10 | 6.3 | mAb 219 (antibody, V domains shown, VH and VL only) VH: QEQLVESGGGVVQPGGSLRLSCAASGFMFSGYGMHWVRQAPGKGLEWVAIIWYNGRKTYYTESVKGRFTISRDNSKNTLSLQMNSLRVEDTAVYYCTAGQGYNWFDPWGQGTLVTVSS VL: EIVMTQSPATLSVSPGERATLSCRASQSVSSNLAWYQQKPGQAPRLLIYGASTRATGIPARFSGSGSGTEFTLTISSLQSEDFAVYYCQQFNAWPLTFGGGTKMEIK
17 | 13 | 8.6 | mAb 213 (antibody, V domains shown, VH and VL only) VH: QEQLVESGGGVVQPGGSLRLSCAASGFTFSGYGMHWVRQAPGKGLEWVAIIWYNGRKTYYAESVKGRFTISRDNSKNTLSLQMNSLRVEDTAVYYCTTGKGYNWFDPWGQGTLVTVSS VL: EIVMTQSPATLSVSPGERATLSCRASQSVSSNLAWYQQKPGQAPRLLIYGASTRATGIPARFSGSGSGTEFTLTISSLQSEDFAVYYCQQFNAWPLTFGGGTKMEIK
18 | 16 | 11 | mAb 220 (antibody, V domains shown, VH and VL only) VH: QEQLVESGGGVVQPGGSLRLSCVASGFTFSGYGMHWVRQAPGKGLEWVAIIWYNGRKTYYAESVKGRFTISRDNSKNTLSLQMNSLRVEDTAVYYCTTGKGYNWFDPWGQGTLVTVSS VL: EIVMTQSPATLSVSPGERATLSCRASQSVSSNLAWYQQKPGQAPRLLIYGASTRATGIPARFSGSGSGTEFTLTISSLQSEDFAVYYCQQFNAWPLTFGGGTKMEIK
19 | 11 | 7.1 | mAb 195 (antibody, V domains shown, VH and VL only) VH: QEQLVESGGGVVQSGRSLRLSCVASGFKFSGYGMHWVRQAPGKGLEWVAIIYYDGKNKYYADSVKGRFTISRDNSKNTLYLQMNSLRAEDTAVYYCTRGAGYNWFDSWGQGTLVTVSS VL: EIVMTQSPATLSVSPGERATLSCRASQSVRNNLAWYQQKPGQAPRLLIYGVSTRATAFPARFSGSGSGTEFTLTISSLQSEDFAVYYCQQYNNWPLTFGGGTKVEIK
20 | 6.9 | 9.1 | mAb 196 (antibody, V domains shown, VH and VL only) VH: QEQLVESGGGVVQSGRSLRLSCVASGFKFSGYGMHWVRQAPGKGLEWVAIIYYDGKNKYYADSVKGRFTVSRDNSKNTLYLQMNSLRAEDTAVYYCTRGAGYNWFDSWGQGTLVTVSS VL: EIVMTQSPATLSVSPGERATLSCRASQSVRNNLAWYQQKPGQAPRLLIYGVSTRATAFPARFSGSGSGTEFTLTISSLQSEDFAVYYCQQYNNWPLTFGGGTKVEIK
